# Measured values: patent publication US20230257477A1
# Biological target: CD99 antigen (Origene, Sku #TP304058) (UniProt P14209)
# Experiment: ELISA on coated CD99 antigen
# Sequence of CD99 antigen (Origene, Sku #TP304058) (P14209 23-185 limits assumed): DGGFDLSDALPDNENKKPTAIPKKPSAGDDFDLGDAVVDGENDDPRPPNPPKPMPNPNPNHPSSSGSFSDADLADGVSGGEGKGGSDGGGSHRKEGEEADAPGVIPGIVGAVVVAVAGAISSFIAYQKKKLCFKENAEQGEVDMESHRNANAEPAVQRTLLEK
binder,measurement,value
"1H3H9 (antibody, V domains shown) VH: EVQLQQSGAELVKPGASVKLSCTASGFDIKDTYIHWVKQRPEQGLEWIGRIDPANGDTRYDPEFQGKASLTADTSSNTAYLQFSNLTSEDTAVYYCARRGGLSWGQGTTLTVSS VL: DIQMTQSPASLSASVGETVTITCRASGNIHNYLAWYQQKQGKSPQLLVYNAKTLADGVPSRFSGSGSGTQYSLKINSLQPEDFGSYYCQHFWSTPWTFGGGTKLEIK",ELISA absorbance,0.658
